# Measurements reported in the DeepSol protein solubility set.
# Experiment: soluble on expression in E. coli; label from the status in PepcDB or PDB records
row,Sequence,soluble on expression in E. coli
1,MSDHDRDFDVVVVGGGHNGLVAAAYLARAGLRVRLLERLAQTGGAAVSIQAFDGVEVALSRYSYLVSLLPSRIVADLGAPVRLARRPFSSYTPAPATAGRSGLLIGPTGEPRAAHLAAIGAAPDAHGFAAFYRRCRLVTARLWPTLIEPLRTREQARRDIVEYGGHEAAAAWQAMVDEPIGHAIAGAVANDLLRGVIATDALIGTFARMHEPSLMQNICFLYHLVGGGTGVWHVPIGGMGSVTSALATAAARHGAEIVTGADVFALDPDGTVRYHSDGSDGAEHLVRGRFVLVGVTPAVLASLLGEPVAALAPGAQVKVNMVVRRLPRLRDDSVTPQQAFAGTFHVNETWSQLDAAYSQAASGRLPDPLPCEAYCHSLTDPSILSARLRDAGAQTLTVFGLHTPHSVFGDTEGLAERLTAAVLASLNSVLAEPIQDVLWTDAQSKPCIETTTTLDLQRTLGMTGGNIFHGALSWPFADNDDPLDTPARQWGVATDHERIMLCGSGARRGGAVSGIGGHNAAMAVLACLASRRKSPLEHHHHHH,not soluble
2,MQVTYKGRPIRITPDFSPETMKARRAWTDVIQTLREHKCQPRLLYPAKLSITIDGETKVFHDKTKFTQYLSTNPALQRIITEKKQYKD,soluble
3,MADPIDNNSGKYTVQRFPAVADPADPGYSRCTTWVQAVSHGFHQQRRDDEYLAKTLTAYQTDKRELTGVYVNGSVPDHSLGADVPVATYATMRKALNIGFGRQLEAHLVTAVTVRGTHRRNGILRGMITADLEAAKDDGLAMAALTASEASIYGRFGFGVATFERSIKVDTGPRFRLRGLPQGTVEVADPSVLLDVAPQVFERLQRLSPGSIDRQEYYRLVASGSIGHDGKPDTSVRCALHYDLSGSLDGYVSYRFKGWDHKPYTMEIVDLVAASNAAYLDLWRFLGSIDLIDEVTWVEAPVDDPLAWALEDPRCIEASEIRDMLWLRILDTPAALQARSFPVAGRLVLEVTDSLGLAGGTWVLESDGGAAAVVKEAAGETPDLSLDAADLGSIYLGAVSPVTLAAAGRIQEKTPGAALLAQQLFAVERSAHCLTHF,soluble
4,MGKPMQVSRYWRHFREKYRLIGGKCENGHLLFPKRPICPICGSRNIEEFQFSGKGKVITWTIVRNPPSGFEYYKPYPLALVQLEEGPVVLAQLTDVEPEEIKEGMEVEMVTRKIREFDEDGLILYGYKFRPIIKSELEHHHHHH,soluble
5,MAAAGARPVELGFAESAPAWRLRSEQFPSKVGGRPAWLGAAGLPGPQALACELCGRPLSFLLQVYAPLPGRPDAFHRCIFLFCCREQPCCAGLRVFRNQLPRKNDFYSYEPPSENPPPETGESVCLQLKSGAHLCRVCGCLGPKTCSRCHKAYYCSKEHQTLDWRLGHKQACAQPDHLDHIIPDHNFLFPEFEIVIETEDEIMPEVVEKEDYSEIIGSMGEALEEELDSMAKHESREDKIFQKFKTQIALEPEQILRYGRGIAPIWISGENIPQEKDIPDCPCGAKRILEFQVMPQLLNYLKADRLGKSIDWGILAVFTCAESCSLGTGYTEEFVWKQDVTDTP,soluble
6,MQTLTVVGLGRLGRSLGRLAADSGAYRLLDLMGRRAQPLAEGRDFVGAGRPVSEMRQLAPADLYLLAVPDAAIASCARGLAAAGVAPAGSVVFHASGVGDASLLRPLAEQGVLTASLHPAFSFADPKRAVEGFAGTLCALEGDEQACLRLEAFARALGGRPFRLAPGGKAAYHAGLSVASNFLVALTAMAGQLTARAGVPPELARQLLGGLMRQTLDNALELGPYDALTGPILRGDIGTVERHLEVLADTGLISAYRTLGRQVVELAGERLQEPARQQLLALLYLEHHHHHH,soluble
7,GPGSMMASFTPLDNFKSRSRGVMPTGIVIDKSCRVYVTQIPLERIERDGASAMKSEFEVYGPLESYKMFTDRSGRFIGSALCTYRNPADASMAVYCMDGVEVEGSTLHVEPAKEHGVVLLASGSSSGGNGQHRDHSRGFLRDTQRQWGRGGRGGAGLLGAGRGSGYSTTGREDASNTSELDLCAEELGLAATDGVSPSAANGKWSHDKYEMMAEGKDMDEVLG,not soluble
8,GPGSMVNATPDMARYCCAVIHSKLRGEKTPEPPASITNEPSPIFVSLKTLDGDLRGCIGNFSAEPLHKQLRDYAVAAAFQDNRFPSVTLAELPMLSCSVCLLHSFEKAHRWDDWEIGVHGIRIRYKNYSATYLPSVMPEQRWDHIQAIRSLMRKAGCGEEVSDAILNELDVTRYQESKSTVAFKSANLGSLPC,soluble
9,GSPGISGGGGGILVGSKMAASIRERQTVALKRMLNFNVPHVKNSPGEPVWKVLIYDRFGQDIISPLLSVKELRDMGITLHLLLHSDRDPIRDVPAVYFVMPTEENIDRLCQDLRNQLYESYYLNFISAISRSKLEDIANAALAANAVTQVAKVFDQYLN,soluble
10,MGSDKIHHHHHHMKAYYHLPGLFEFYELYKEFLPLYRKHREYFYDWCDIGSIYGAPADCIWGGGRVGFGEHDLKEVLKLMQEYGISARLTFSNSLLTKEHLPDKKCNELCRIFDIGRDNERSRGFGNGIIIYSDILLDYIKENYPDFYFVSSTTKVLTDFSEFKNELNREEFRYVVPDFRLNKSFDNLKALSQHQKEKVEFLCNECCWFGCTDRKKCYETVSRKNLGVDCPEHYCVAPDSGQGYLFSKAMENPGFIGVYDIKNTYLPMGFSNFKIEGRGLGSAMILEFLLYYMTKPQYQIHVREHIYLDNMLDLF,not soluble
11,MELTAVPATQFSSVQLTDILNACFEAYLVPVTQSVEGFVQRFSAEGMSLVDSRVWLAGDEPAAIAIVARRGSAARLAAFALRPAWRGKGLGRKLMQELLMLLQQQGIETVYLEVIRDNHAAVALYQSLGFTRRYGLCGYLSTELLAPVPGVLQLYPTLSLLRRAIEESNSQLPWLLDPLTFATLPCQVVTLEQRAFAVLTTAGSRPVLSFLWVEPAARRQGLARELLMALAQQFPGIGTSVTVPETFTPLFAAAGYTPLSLQQYEMTMDLADAKSA,not soluble
12,MSKVIIPKIVGHRGVGKEGLAPENTLRSFVLCMERNIPYIETDLRVCKTGEIVLFHGTPEGTIPFYKDGTSRIGDLSLEELKRLDVGGGHTIPSLEELFVAIEEQKFNLKLNLELKGEEWKRKESGDHQRLLLLVEKYHMQERVDYCSFHHEALAHLKALCPDVKITYLFNYMGQPTPLDFVEQTQKACYGDANGVSMLFHYLTKEQVCTAHEKGLSVTVWMPWIFDDSEEDWKKCLELQVDLICSNYPFGLMNFLSNISE,soluble
13,MLKEVPIKRRQSTKIYVGNVPVGGDAPIAVQSMTNTRTTDIEATIAQIKALERVGADIVRVSVPTMDAAEAFKVIKQQVNVPLVADIHFDYRIALKVAEYGVDCLRINPGNIGNEERIRAVVDCAKDKNIPIRIGVNAGSLERDLQEKYGEPTPQALLESALRHVEILDRFNFDQFKVSVKASDVFLAVESYRLLAKAIKQPIHLGITEAGGARAGSVKSAIGLGLLLSEGIGDTLRVSLAADPVDEVKVGFDILKSLRIRSRGINFVACPTCSRQEIDVIATVNALEQRLEDILTPMDVSIIGCVVNGPGEALVSDLGVTGSNKMSGFYLDGVRQKERFDNDKLIDQLEAKIRAKVAQQHHRIAIEQILEHHHHHH,not soluble
14,MKKSAFIFSDGELKRKDSTVLFESEDSKNYLPIEDISDIYIFGEVTVTKKFLELATQKEILLHFYNYNEYYVGTYYPREHYNSGFMILKQAEHYLDEEKRMAIAKKFIHGSVKNMLAVLKYYNNREKDLDRQITAISDLAEKIDEMDEINKLMAIEGNIREIYYGSFDIIVDDEYFEFGKRTKQPPKNRMNSLISFGNSILYTTVLSEIYKTHLDPRIGYLHSTNHRRFTLNLDVAEIFKPIIVDRVIFTLIGKKMLGEKHFEEKAGGIVLNDKGRKQFVAQMLEKLNATLMYKPLGREVSYRRLIRLELYKLEKHLMGEQEYKPYVASW,soluble
15,MSLPDTSPDLPAMSPLAVYRQAVEQRGFAPDEAQRRAAEALERCFQALHEAHRHGAIQGVYLWGPVGRGKTWLMDHFYQCLRVPARRQHFHHFMQWVHQRQFELTGTADPLRALARELARDVRVLCFDELFVSDIGDAILLGSLLRIMFEEGVVLVATSNQPPEQLYADGFNRERFLPAIEAIQRHMAVVAVDGGQDHRLHPGRAEQRYWVVEAGQASGFAELFARLSAGEAASTQPIELGHRPLAVHRHSESVLWCSYAQLCEAPLSALDFIGLCDRYRAILMDDLPCLSASQREGRIARGTEDGAQLVEAGDRELPQLSVHDDGVRRFIALVDECYDRKVPLYLEARVPLEALYTEGYLAFAFRRTLSRLREMQLARFGSDSEGGSHHHHHH,soluble
16,MGHHHHHHSHSHTIRDLKYTIENPRHFVDSHHQKPVNAIIEHVRDGSVVRALLLPDYYLVTVMLSGIKCPTFRREADGSETPEPFAAEAKFFTESRLLQRDVQIILESCHNQNILGTILHPNGNITELLLKEGFARCVDWSIAVYTRGAEKLRAAERFAKERRLRIWRDYVAPTANLDQK,not soluble
17,MQASDRFNINSQLEHLQAKYVGTGHADLSRFEWAVNIQRDSYASYIGHYPMLSYFAIAENESIGRERYNFMQKMLLPCGLPPEREEE,soluble
18,MGSDKIHHHHHHMKVQFLGAARTVTGSCYVVESGGVRFAVDCGMHQGNHEIEKRNYETDVYSPETIDFFLITHAHIDHTGLLPRMVRDGFTGPVYCTEPTRDLLEIMLQDSANIQEMEAEWQTRKQKRKGRKPVDPLYTFADAARVSRFFENVEYNRPFSPVEGVTVTYKDAGHILGSAFLEIEVCEHGRCSRLIFSGDLGKPNSLIVRDPEAAAAADYLFVESTYGDRNHKDESNSRQELAEAIAYSYRQGEKVIIPAFAVERTQEVLYTLFLLQKEGRMPVDMPIFLDSPLAIRATEIFRKHPRFFDEEMQKLLLSGEDPFAMPSLRLTTKTQESQAINNYTGPAVIISASGMCNAGRIKHHLRHNIWRPGASIVFVGYQAVGTPGRRIVDGARSIRLFGEEIAIQAKVFTIGGFSGHAGQSQILDWVGKFATKEMKVFLVHGEEKAQQALKAILEEKYELSVHSPGYLEEIELEPGEAVVTTGDPQRYQPQLNWDFLLSETEARMMQLRARKGDIEHADWAQQVEIRDRLLELNNEMLGILSEL,not soluble
19,MHHHHHHSSGRENLYFQGTLSALAVDLGGTNLRVAIVSMKGEIVKKYTQFNPKTYEERINLILQMCVEAAAEAVKLNCRILGVGISTGGRVNPREGIVLHSTKLIQEWNSVDLRTPLSDTLHLPVWVDNDGNCAALAERKFGQGKGLENFVTLITGTGIGGGIIHQHELIHGSSFCAAELGHLVVSLDGPDCSCGSHGCIEAYASGMALQREAKKLHDEDLLLVEGMSVPKDEAVGALHLIQAAKLGNAKAQSILRTAGTALGLGVVNILHTMNPSLVILSGVLASHYIHIVKDVIRQQALSSVQDVDVVVSDLVDPALLGAASMVLDYTTRR,soluble
20,MPKETFYNLSEEKRQRIINSAEKEFFRVPLSKASIANIVTGAQIPRGSFYQYFDDLNDLYHYFFEKKFQGFHENFKKELENHQGDLIEAWRQVAKKVLRRIVNSENSIFFENAIFGLNIQRDQNIIDSFANFHHPENKAPEYFDEIDFSFLKIKSKKDLITLRHIMSGIIIQAATAYFSKCDSGQKVDLEEILEGIDKQIDWLKYGVYKEKEHD,not soluble
21,MGSDKIHHHHHHMISFFLSDLIKSILNIQDNNISFSEEECCQVTQKGDYLLKVFKGFLKSDYCTCPHCSSKNIVKNGSRHRKIKYIPIQNYNIELELTVQRYICKDCKKNFSPSTNIVSDNSSISNNLKYAIALELQKNISLTSIAKRYNISIPSVQRIMDNCYSDFKVNKKHLPEAICIDEFKSVKNIDGAMSFVFADYQSKSIIDIVEDRRLHSLTEYFSRFSLEARNNVKYICMDMYTSYISLVNSIFPNAKIVLDKFHIVNLVNRAFNQTRISIMNSIQDDSLKRKFKLFWKSLLKYYPDLCQINYYCQSFKRKLSSKLSLRKKP,not soluble
